Consider 3 molecules from PMC4518479, “Rad51 Paralogs Remodel Pre-synaptic Rad51 Filaments to Stimulate Homologous Recombination” (Cell, 2015).

The target in series [1] is T1, FLAG-tagged RIP-1 co-expressed with RFS-1 in budding yeast (C. elegans, UniProt Q21621 1-209).
T1 construct: RIP-1 of C. elegans (R01H10.5); also called RIP-1-FLAG; source: budding yeast, co-expressed with RFS-1, in extract; purified by FLAG immunoprecipitation; not shown: FLAG, C-terminal, kept
T1 sequence (looked up): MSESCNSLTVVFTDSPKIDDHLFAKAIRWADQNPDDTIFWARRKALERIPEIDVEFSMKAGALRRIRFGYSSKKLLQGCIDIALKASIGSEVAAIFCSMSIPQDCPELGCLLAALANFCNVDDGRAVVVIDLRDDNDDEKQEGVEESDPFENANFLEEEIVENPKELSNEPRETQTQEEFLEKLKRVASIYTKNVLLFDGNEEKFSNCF
As to the kind of experiment: SEC; 3 ml Superdex 75 5/150 GL column loaded with 30 ul RFS-1/RIP-1 from single-step FLAG immunoprecipitation; size from molecular weight markers. As to conditions: both partners purified. (Size exclusion chromatography separates by hydrodynamic size, large species first.)

For series [2], the target named is T2, RAD-51;RFS-1(E138A)/RIP-1 (Caenorhabditis elegans;Caenorhabditis …, UniProt Q7K7I8;P34348;Q21621 1-357;1-245;1-209, |E138A).
T2 sequence 1: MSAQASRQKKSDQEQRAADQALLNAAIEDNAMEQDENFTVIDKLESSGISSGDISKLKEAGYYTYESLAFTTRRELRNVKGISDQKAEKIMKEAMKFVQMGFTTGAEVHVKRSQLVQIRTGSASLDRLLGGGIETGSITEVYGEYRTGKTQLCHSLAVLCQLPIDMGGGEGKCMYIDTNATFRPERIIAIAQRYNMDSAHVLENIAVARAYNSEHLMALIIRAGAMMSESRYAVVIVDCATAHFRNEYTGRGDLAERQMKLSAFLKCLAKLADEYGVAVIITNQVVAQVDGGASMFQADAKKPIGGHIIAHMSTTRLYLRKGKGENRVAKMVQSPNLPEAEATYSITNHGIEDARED
T2 sequence 2: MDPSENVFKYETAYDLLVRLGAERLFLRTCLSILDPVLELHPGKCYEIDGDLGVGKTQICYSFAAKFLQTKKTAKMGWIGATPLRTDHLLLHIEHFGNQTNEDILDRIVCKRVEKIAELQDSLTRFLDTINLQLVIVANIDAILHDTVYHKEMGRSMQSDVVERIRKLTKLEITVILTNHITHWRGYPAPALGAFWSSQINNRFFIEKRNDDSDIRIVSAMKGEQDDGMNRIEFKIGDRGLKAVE
T2 sequence 3: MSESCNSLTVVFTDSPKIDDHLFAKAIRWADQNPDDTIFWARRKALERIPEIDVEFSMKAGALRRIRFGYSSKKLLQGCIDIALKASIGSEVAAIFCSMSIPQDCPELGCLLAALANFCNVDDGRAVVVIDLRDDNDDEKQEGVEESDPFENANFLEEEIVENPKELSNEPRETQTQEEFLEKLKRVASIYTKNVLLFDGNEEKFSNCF
In words: EMSA; ATP; filament binding similar to wild type; EMSA: 20 mM triethanolamine-HCl pH 7.5, 8% glycerol, 1 mM DTT, 50 mM sodium acetate, 2 mM MgCl2 + 2 mM nucleotide (or 10 mM EDTA), 100 nM (nt) DNA, 25 °C. As to conditions: protein: recombinant;recombinant; tags: none (His-SUMO tag cleaved);3xFLAG at RIP-1 C-terminus; label: 5'-32P or 5'-fluorescein. For orientation: Mobility shift assays separate free from complexed probe on a gel.

The target of series [3] is T3, RAD-51;RFS-1(K56A)/RIP-1 (Caenorhabditis elegans;Caenorhabditis …, UniProt Q7K7I8;P34348;Q21621 1-357;1-245;1-209, |K56A).
T3 sequence 1: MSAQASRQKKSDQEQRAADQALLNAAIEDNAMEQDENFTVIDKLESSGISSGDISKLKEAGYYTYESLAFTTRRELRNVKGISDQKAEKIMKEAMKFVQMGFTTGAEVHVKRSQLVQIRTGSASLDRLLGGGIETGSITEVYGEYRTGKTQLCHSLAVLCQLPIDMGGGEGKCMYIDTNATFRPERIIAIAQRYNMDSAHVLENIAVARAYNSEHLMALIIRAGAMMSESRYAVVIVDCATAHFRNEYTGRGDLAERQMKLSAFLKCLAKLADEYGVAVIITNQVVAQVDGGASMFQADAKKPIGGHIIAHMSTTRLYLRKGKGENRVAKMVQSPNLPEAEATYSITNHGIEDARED
T3 sequence 2: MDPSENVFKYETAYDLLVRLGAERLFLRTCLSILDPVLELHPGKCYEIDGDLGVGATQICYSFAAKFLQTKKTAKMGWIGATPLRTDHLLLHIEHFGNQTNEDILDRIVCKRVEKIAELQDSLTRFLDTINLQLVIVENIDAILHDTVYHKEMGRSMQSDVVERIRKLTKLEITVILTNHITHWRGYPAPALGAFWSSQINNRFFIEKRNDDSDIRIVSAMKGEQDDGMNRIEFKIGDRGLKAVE
T3 sequence 3: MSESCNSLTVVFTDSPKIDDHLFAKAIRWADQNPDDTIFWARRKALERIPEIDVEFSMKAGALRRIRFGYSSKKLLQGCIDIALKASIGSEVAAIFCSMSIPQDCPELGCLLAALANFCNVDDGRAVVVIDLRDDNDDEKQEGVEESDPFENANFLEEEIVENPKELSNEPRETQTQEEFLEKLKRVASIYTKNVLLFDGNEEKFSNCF
The series is described as above. As to conditions: protein: recombinant;recombinant; tags: none (His-SUMO tag cleaved);3xFLAG at RIP-1 C-terminus; label: 5'-32P or 5'-fluorescein.

For series [4], the target named is T4, RFS-1/RIP-1 (Caenorhabditis elegans, UniProt P34348;Q21621 1-245;1-209).
T4 sequence 1: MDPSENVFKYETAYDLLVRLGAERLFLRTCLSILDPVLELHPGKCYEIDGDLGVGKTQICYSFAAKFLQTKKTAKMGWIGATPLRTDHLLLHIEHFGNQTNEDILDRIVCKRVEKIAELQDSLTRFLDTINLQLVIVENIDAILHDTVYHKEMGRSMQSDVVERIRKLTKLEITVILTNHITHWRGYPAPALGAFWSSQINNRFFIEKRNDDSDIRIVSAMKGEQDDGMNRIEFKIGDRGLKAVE
T4 sequence 2: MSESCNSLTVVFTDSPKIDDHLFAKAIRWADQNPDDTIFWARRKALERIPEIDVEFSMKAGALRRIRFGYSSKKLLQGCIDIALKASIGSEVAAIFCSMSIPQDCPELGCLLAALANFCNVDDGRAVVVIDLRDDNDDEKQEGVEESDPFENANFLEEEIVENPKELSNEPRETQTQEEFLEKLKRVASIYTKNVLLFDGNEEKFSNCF
In words: EMSA; weak binding; nucleotide independent; EMSA: 20 mM triethanolamine-HCl pH 7.5, 8% glycerol, 1 mM DTT, 50 mM sodium acetate, 2 mM MgCl2 + 2 mM nucleotide (or 10 mM EDTA), 100 nM (nt) DNA, 25 °C. As to conditions: protein: recombinant; copies: 1;1; label: 5'-32P or 5'-fluorescein.

The target of series [5] is T5, RFS-1(K56A)/RIP-1 (Caenorhabditis elegans, UniProt P34348;Q21621 1-245;1-209, K56A).
T5 sequence 1: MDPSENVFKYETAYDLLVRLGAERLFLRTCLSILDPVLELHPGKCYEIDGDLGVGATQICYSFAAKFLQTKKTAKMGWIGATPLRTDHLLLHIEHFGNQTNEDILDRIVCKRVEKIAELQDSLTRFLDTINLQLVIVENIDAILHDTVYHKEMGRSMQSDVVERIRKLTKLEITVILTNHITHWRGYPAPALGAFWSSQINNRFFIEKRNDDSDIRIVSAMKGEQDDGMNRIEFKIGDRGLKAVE
T5 sequence 2: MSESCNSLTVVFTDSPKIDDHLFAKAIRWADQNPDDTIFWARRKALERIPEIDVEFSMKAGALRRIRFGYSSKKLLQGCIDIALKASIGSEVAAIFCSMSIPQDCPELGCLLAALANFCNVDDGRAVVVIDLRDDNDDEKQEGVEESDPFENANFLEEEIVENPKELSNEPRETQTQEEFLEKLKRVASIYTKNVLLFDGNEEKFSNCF
In words: EMSA; increased ssDNA affinity relative to wild type; EMSA: 20 mM triethanolamine-HCl pH 7.5, 8% glycerol, 1 mM DTT, 50 mM sodium acetate, 2 mM MgCl2 + 2 mM nucleotide (or 10 mM EDTA), 100 nM (nt) DNA, 25 °C. As to conditions: protein: recombinant; tags: 3xFLAG at RIP-1 C-terminus; copies: 1;1; label: 5'-32P or 5'-fluorescein.

Series [6] addresses T6, RFS-1(E138A)/RIP-1 (Caenorhabditis elegans, UniProt P34348;Q21621 1-245;1-209, E138A).
T6 sequence 1: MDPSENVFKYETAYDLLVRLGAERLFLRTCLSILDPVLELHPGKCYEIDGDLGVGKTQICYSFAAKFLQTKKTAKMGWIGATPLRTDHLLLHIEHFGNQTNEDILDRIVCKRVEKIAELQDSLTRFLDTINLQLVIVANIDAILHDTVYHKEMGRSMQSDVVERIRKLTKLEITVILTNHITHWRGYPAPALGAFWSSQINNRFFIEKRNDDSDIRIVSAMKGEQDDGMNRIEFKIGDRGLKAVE
T6 sequence 2: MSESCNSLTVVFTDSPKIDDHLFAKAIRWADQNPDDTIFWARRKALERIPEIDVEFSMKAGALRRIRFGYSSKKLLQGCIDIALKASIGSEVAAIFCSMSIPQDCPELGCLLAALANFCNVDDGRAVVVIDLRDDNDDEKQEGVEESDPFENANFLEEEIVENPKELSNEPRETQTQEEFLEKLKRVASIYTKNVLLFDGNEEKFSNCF
The series is described as above. As to conditions: protein: recombinant; tags: 3xFLAG at RIP-1 C-terminus; copies: 1;1; label: 5'-32P or 5'-fluorescein.

Series [7] has as its target T7, RAD-51;RFS-1/RIP-1 (Caenorhabditis elegans;Caenorhabditis …, UniProt Q7K7I8;P34348;Q21621 1-357;1-245;1-209, |).
T7 sequence 1: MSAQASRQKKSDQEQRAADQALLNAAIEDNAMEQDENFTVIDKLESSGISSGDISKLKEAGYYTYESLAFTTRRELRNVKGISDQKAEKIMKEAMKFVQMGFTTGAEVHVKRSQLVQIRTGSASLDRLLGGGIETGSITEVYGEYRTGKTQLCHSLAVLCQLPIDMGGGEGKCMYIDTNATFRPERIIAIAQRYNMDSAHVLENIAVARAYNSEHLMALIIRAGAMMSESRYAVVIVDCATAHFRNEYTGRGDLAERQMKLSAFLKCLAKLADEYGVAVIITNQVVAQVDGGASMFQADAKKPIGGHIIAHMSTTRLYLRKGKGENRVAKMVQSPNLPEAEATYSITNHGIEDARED
T7 sequence 2: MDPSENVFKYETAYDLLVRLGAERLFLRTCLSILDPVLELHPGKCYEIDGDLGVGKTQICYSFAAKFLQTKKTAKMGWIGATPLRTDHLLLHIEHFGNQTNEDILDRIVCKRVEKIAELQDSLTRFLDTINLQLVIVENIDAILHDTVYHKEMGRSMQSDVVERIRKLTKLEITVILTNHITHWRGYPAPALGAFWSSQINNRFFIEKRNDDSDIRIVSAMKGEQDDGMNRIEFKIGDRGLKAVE
T7 sequence 3: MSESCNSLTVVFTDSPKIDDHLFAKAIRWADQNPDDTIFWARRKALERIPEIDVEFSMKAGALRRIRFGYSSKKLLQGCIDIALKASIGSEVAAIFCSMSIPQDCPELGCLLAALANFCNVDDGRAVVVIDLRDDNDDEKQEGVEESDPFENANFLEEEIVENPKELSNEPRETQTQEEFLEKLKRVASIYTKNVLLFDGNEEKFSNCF
As to the kind of experiment: EMSA with anti-FLAG immuno-shift; ATP; RFS-1/RIP-1 bound to RAD-51 filament; EMSA: 20 mM triethanolamine-HCl pH 7.5, 8% glycerol, 1 mM DTT, 50 mM sodium acetate, 2 mM MgCl2 + 2 mM nucleotide (or 10 mM EDTA), 100 nM (nt) DNA, 25 °C. As to conditions: protein: recombinant;recombinant; label: 5'-32P or 5'-fluorescein.

Series [8] concerns the target T4, RFS-1/RIP-1. As to the kind of experiment: EMSA; EMSA: 20 mM triethanolamine-HCl pH 7.5, 8% glycerol, 1 mM DTT, 50 mM sodium acetate, 2 mM MgCl2 + 2 mM nucleotide (or 10 mM EDTA), 100 nM (nt) DNA, 25 °C. As to conditions: protein: recombinant; copies: 1;1; label: 5'-32P; blunt.

B1: RFS-1 co-expressed with RIP-1 in budding yeast (natural protein, C. elegans, UniProt P34348 1-245, looked up)
chain: MDPSENVFKYETAYDLLVRLGAERLFLRTCLSILDPVLELHPGKCYEIDGDLGVGKTQICYSFAAKFLQTKKTAKMGWIGATPLRTDHLLLHIEHFGNQTNEDILDRIVCKRVEKIAELQDSLTRFLDTINLQLVIVENIDAILHDTVYHKEMGRSMQSDVVERIRKLTKLEITVILTNHITHWRGYPAPALGAFWSSQINNRFFIEKRNDDSDIRIVSAMKGEQDDGMNRIEFKIGDRGLKAVE
notes: RFS-1 of C. elegans; see Supplemental Experimental Procedures; also called recombinant RFS-1; source: budding yeast, co-expressed with RIP-1, in extract; co-purified by FLAG immunoprecipitation
A word on the stoichiometry N: it is a count of units in the complex or per binding partner. As to B1, the “stoichiometry N” value in series [1] is 1.

B2: 60-mer ssDNA (ssDNA)
DNA: ACGCTGCCGAATTCTACCAGTGCCTTGCTAGGACATCTTTGCCCACCTGCAGGTTCACCC
B2: the binding result in series [2], in series [3], in series [4], in series [5], in series [6] and in series [7] was “binds” in each case.

B3: 60-mer dsDNA (dsDNA)
DNA 1: ACGCTGCCGAATTCTACCAGTGCCTTGCTAGGACATCTTTGCCCACCTGCAGGTTCACCC
DNA 2: GGGTGAACCTGCAGGTGGGCAAAGATGTCCTAGCAAGGCACTGGTAGAATTCGGCAGCGT
Regarding B3, the binding result in series [8] is “no binding”.
